Source: US10688197B2, “Non-alcoholic fatty liver regulator 14-3-3 protein” (Korea University Research and Business Foundation, priority 2015, dated 2020)

Columns and labels:
[1] = target: T1, PPARγ2 S273A mutant (Homo sapiens, UniProt P37231, S273A); test: aP2 promoter luciferase reporter with PPARγ2 S273A mutant in HEK-293T cells; assay type: cell-based; conditions: overexpression of 14-3-3β or 14-3-3γ, FIG. 4C/4D
T1 construct: expressed in transfected cells; host or cells: HEK-293T
T1 sequence (P37231 1-505 S273A): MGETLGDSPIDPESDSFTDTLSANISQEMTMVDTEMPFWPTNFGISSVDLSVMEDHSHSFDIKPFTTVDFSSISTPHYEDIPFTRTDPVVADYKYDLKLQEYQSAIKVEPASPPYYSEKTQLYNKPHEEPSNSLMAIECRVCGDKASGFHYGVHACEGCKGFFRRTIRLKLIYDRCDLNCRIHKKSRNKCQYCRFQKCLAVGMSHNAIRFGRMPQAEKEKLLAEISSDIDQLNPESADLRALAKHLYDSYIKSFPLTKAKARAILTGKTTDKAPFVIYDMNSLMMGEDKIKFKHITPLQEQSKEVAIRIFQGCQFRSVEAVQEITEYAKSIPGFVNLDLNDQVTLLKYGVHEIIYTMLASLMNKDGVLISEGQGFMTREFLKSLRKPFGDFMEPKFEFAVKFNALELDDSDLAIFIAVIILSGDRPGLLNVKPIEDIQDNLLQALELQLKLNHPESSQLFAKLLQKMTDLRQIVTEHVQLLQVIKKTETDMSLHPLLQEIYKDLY
Procedure: In addition, HEK-293T cells were seeded in a 12-well plate at a density of 1×10^5 cells per each well, and then transfected with an aP2 promoter construct (0.5 μg), Flag-PPARγ2 (S112A) DNA (0.5 μg) or Flag-PPARγ2 (S273A) DNA (0.5 μg), and mGST-14-3-3β DNA (0.5 μg) or mGST-14-3-3γ DNA (0.5 μg) using an E-fection plus reagent (Lugen). A ratio of DNA to the E-fection plus reagent was 1:2, and this method was performed according to a manufacturer's manual. The corresponding cells were washed with ice-cold PBS, and lysed using 80 μl/well of a reporter lysis buffer (Promega, Madison, Wis.), and the lysed cells were centrifuged at 10,000×g and 4° C. for 10 minutes to collect a supernatant, and luciferase activity was measured. As an instrument, Luminometer 20/20n (Turner Biosystems, Sunnyvale, Calif.) was used. For normalization, the cells were cotransfected with pSV40-β-galactosidase. For the collected supernatant, β-galactosidase activity was measured and the luciferase activity was revised, and the obtained values were plotted. At this time, a β-galactosidase enzyme analysis system (Promega, Madison, Wis.) was used, and analysis was performed using a DU530 spectrophotometer (Beckman Instruments, Palo Alto, Calif.).

[2] = target: T2, PPARγ2 deletion mutant (139-505) (Homo sapiens, UniProt P37231); test: GST-pull down assay with PPARγ2 deletion mutant (139-505); assay type: binding; conditions: FIG. 3B/3C
T2 construct: Flag-PPARγ2 (139-505) DNA (4 μg); expressed in transfected cells; host or cells: HEK-293T
T2 sequence (P37231 139-505): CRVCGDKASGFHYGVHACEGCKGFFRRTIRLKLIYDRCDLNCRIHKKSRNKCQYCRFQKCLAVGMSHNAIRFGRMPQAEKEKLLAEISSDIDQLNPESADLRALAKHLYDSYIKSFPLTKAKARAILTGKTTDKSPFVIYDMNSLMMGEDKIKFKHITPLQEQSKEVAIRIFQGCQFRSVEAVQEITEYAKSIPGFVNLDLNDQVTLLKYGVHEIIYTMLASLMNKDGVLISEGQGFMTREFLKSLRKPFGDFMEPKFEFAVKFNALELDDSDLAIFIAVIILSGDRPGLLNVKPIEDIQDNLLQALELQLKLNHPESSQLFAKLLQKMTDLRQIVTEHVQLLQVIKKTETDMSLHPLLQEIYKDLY
Procedure: HEK-293T cells were seeded in a 100 mm plate at a density of 2×10^6 cells per each well, and then transfected with Flag-PPARγ2 (1-505) DNA (4 μg), Flag-PPARγ2 (1-310) DNA (4 μg), Flag-PPARγ2 (139-505) DNA (4 μg), and mGST-14-3-3β (4 μg) or mGST-14-3-3γ (4 μg) using an E-fection plus reagent (Lugen). For Flag-PPARγ2 (1-310) DNA and Flag-PPARγ2 (139-505) DNA, DNA fragments amplified through polymerase chain reaction (PCR) were cloned into a pCMV-3Tag-1 vector using restriction enzymes XhoI and ApaI. A ratio of DNA to the E-fection plus reagent was 1:2, and this method was performed according to a manufacturer's manual. The corresponding cells were washed with ice-cold PBS and lysed using 500 μl/well of a lysis buffer (150 mM NaCl, 1 mM EDTA, 1% Nonidet P-40, 5% glycerol, 25 mM tris-HCl, pH 7.5, protease inhibitor added), and the lysed cells were centrifuged at 10,000×g and 4° C. for 10 minutes to extract proteins. Thereafter, 1,000 μg of the proteins was reacted with 20 μl of glutathione Sepharose 4B beads (GE Healthcare, Buckinghamshire, UK) for 6 hours, and then washing of the beads with 1 ml of ice-cold PBS was repeated 5 times, and the beads were boiled at 100° C. for 10 minutes, followed by 10% SDS-PAGE gel separation and western blotting. A ratio of GST antibodies (Santa Cruz) to Flag antibodies (Santa Cruz) was 1:3000. […]

Substance | transcriptional activity of PPARγ2 S273A mutant [1] | binding to PPARγ2 deletion mutant (139-505) [2]
14-3-3γ: 14-3-3 isoform protein overexpressed by DNA transfection; decreases the transcriptional activity of PPARγ2; proposed active ingredient | no change | bound
14-3-3β: 14-3-3 isoform protein overexpressed by DNA transfection; increases the transcriptional activity of PPARγ2 by binding to PPARγ2 | no change | bound
